Our source for the Kd values is patent publication US20210107981A1 (SUTRO BIOPHARMA, published 2021).

Test [1] deals with T1, Human PD-1 (ACROBiosystems, Inc., Catalog No. PD1-H5221) (human, UniProt Q15116 25-167).
T1 construct: Bought recombinant protein; also called huPD1-His; PD-1-his; not shown: His tag of the bought protein (huPD1-His)
Kind of test: SPR (Biacore), IgG as ligand, PD-1-his as sample.

The target in test [2] is T2, human PD-1 expressed on the cell surface (CHO-PD1 cells) (human, UniProt Q15116 25-288).
T2 construct: Also used here as the target for native PD-1 on human PBMC / T cells in the functional (IFN-g) assays; also called CHO cell line overexpressing human PD-1; Cell-Surface Human PD-1 antigen
T2 sequence (Q15116 25-288 limits assumed): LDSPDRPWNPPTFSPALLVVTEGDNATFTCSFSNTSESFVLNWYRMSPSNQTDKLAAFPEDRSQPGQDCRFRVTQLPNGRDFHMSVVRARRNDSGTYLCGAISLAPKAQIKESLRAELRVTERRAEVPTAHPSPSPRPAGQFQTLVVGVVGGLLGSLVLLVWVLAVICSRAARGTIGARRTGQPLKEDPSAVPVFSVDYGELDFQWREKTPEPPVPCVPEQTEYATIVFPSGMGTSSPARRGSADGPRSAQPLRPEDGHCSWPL
Kind of test: FACS cell binding on CHO cells expressing human PD-1. How it is done: (§1) A mix of parental CHO cells and CHO-PD1 cells was prepared as follows: Parental CHO cells were washed 2× in PBS then incubated in PBS containing 1 μM CellTrace™ Oregon Green488® (Life Technologies) at 37° C. for 30 minutes. Cells were then washed 2× with RPMI w/10% fetal calf serum (FCS), washed 2× with FACS buffer (PBS w/2% FCS), suspended thoroughly in ice-cold FACS buffer at a final concentration of 2×10⁶ cells/mL and kept on ice. CHO-PD1 cells were similarly washed with FACS buffer and kept on ice at 2×10⁶ cells/mL. Parental CHO cells and CHO-PD1 cells were then mixed to obtain a 1:1 cell suspension and seeded at 100 μL per well on 96 well polypropylene plates. Plates were spun at 1500 rpm for 5 minutes and cell pellets were suspended in 50 μL FACS buffer containing 6-12 point dilutions of anti-PD-1 variants starting from concentrations of −100-200 nM antibody, dispensed using BioMek FX (Beckman Coulter). Cells were then incubated on ice for 1 hr, washed with FACS buffer and incubated for 1 hr on ice with 50 μL FACS buffer containing 2.5 μg/ml R-phycoerythrin-conjugated goat anti-Human IgG (Jackson ImmunoResearch) or AF647-conjugated goat anti-mouse IgG (Life Technologies) dispensed using BioMek FX (Beckman Coulter). Cells were then washed 2× with FACS buffer and fixed for 10 minutes in 200 μL PBS with 2% paraformaldehyde (PFA) prior to fluorescence detection. Samples were acquired using a Becton Dickinson LSRII FACS. Mean Fluorescence Intensity of PD-1 antibody binding was analyzed using FlowJo® software (Tree Star, Inc.).
The affinity of the IgGs for cell-surface expressed human PD-1 were measured according to Example 6, above.

In test [3] the target is T3, cynomolgus PD-1 expressed on CHO cells (cynomolgus, UniProt B0LAJ3 25-288).
T3 construct: also called Cell-Surface Cynomolgus PD-1 antigen
T3 sequence (B0LAJ3 entry or part of it limits assumed, form in doubt): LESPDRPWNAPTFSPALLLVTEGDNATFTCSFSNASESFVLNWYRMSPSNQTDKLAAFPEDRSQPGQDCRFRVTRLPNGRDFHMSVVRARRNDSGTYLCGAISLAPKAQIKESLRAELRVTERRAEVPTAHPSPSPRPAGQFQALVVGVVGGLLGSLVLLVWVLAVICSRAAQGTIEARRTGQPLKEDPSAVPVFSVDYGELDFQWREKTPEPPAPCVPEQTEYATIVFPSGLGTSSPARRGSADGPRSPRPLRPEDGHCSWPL
As to the kind of experiment: FACS cell binding on CHO cells expressing cynomolgus PD-1. How it is done:
as §1
The affinity of the IgGs for cell-surface expressed cynomolgus PD-1 were measured according to Example 6, above.

T1 sequence (Q15116 25-167 limits assumed): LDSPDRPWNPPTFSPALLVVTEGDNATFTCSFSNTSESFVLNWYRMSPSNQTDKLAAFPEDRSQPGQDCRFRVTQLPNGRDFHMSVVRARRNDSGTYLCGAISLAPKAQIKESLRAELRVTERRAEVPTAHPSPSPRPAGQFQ

B1: h1E9-HC3 × h1E9-LC3 IgG (antibody)
heavy: not shown
light: MEIVLTQSPGTLSLSPGERATLSCRASESVDNSGISFMSWYQQKPGQAPRLLIYTASNQGSGIPDRFSGSGSGTDFTLTISRLEPEDFAVYYCQQSKEVPWTFGQGTKVEIKRTVAAPSVFIFPPSDEQLKSGTASVVCLLNNFYPREAKVQWKVDNALQSGNSQESVTEQDSKDSTYSLSSTLTLSKADYEKHKVYACEVTHQGLSSPVTKSFNRGEC
notes: Humanized IgG; heavy chain with C-terminal FlagHis tag
Take B1: the Kd in test [1] came to 16.9 nM; in test [2], 12 nM; in test [3], 8 nM.

B2: h1E9-5-IgG-HC-FLAG-HIS × h1E9-LC3 IgG (antibody)
heavy: not shown
light: MEIVLTQSPGTLSLSPGERATLSCRASESVDNSGISFMSWYQQKPGQAPRLLIYTASNQGSGIPDRFSGSGSGTDFTLTISRLEPEDFAVYYCQQSKEVPWTFGQGTKVEIKRTVAAPSVFIFPPSDEQLKSGTASVVCLLNNFYPREAKVQWKVDNALQSGNSQESVTEQDSKDSTYSLSSTLTLSKADYEKHKVYACEVTHQGLSSPVTKSFNRGEC
notes: also called h1E9-5 HC × h1E9-LC3
Regarding B2, the figures for the dissociation constant Kd in test [1], in test [2] and in test [3] were 16.3 nM, 11 nM and 9 nM, respectively.

B3: h1E9-HC2 × h1E9-LC3 IgG (antibody)
heavy: not shown
light: MEIVLTQSPGTLSLSPGERATLSCRASESVDNSGISFMSWYQQKPGQAPRLLIYTASNQGSGIPDRFSGSGSGTDFTLTISRLEPEDFAVYYCQQSKEVPWTFGQGTKVEIKRTVAAPSVFIFPPSDEQLKSGTASVVCLLNNFYPREAKVQWKVDNALQSGNSQESVTEQDSKDSTYSLSSTLTLSKADYEKHKVYACEVTHQGLSSPVTKSFNRGEC
notes: as for B1
Consider B3, for which the Kd in test [1] turned out to be 10.9 nM; in test [2], 9 nM; in test [3], 9 nM.

B4: h1E9-HC1 × h1E9-LC3 IgG (antibody)
heavy: not shown
light: MEIVLTQSPGTLSLSPGERATLSCRASESVDNSGISFMSWYQQKPGQAPRLLIYTASNQGSGIPDRFSGSGSGTDFTLTISRLEPEDFAVYYCQQSKEVPWTFGQGTKVEIKRTVAAPSVFIFPPSDEQLKSGTASVVCLLNNFYPREAKVQWKVDNALQSGNSQESVTEQDSKDSTYSLSSTLTLSKADYEKHKVYACEVTHQGLSSPVTKSFNRGEC
notes: as for B1
Regarding B4, the Kd in test [1] was 6.38 nM; in test [2], 12 nM; in test [3], 15 nM.

B5: h1E9-HC3 × h1E9-LC1 IgG (antibody)
heavy: not shown
light: MDIQLTQSPSSLSASVGDRVTITCRASESVDNSGISFMSWYQQKPGKAPKLLIYTASNQGSGVPSRFSGSGSGTDFTFTISSLQPEDIATYYCQQSKEVPWTFGQGTKVEIKRTVAAPSVFIFPPSDEQLKSGTASVVCLLNNFYPREAKVQWKVDNALQSGNSQESVTEQDSKDSTYSLSSTLTLSKADYEKHKVYACEVTHQGLSSPVTKSFNRGEC
notes: as for B1
As for B5, the figures for the Kd in test [1], in test [2] and in test [3] were 3.6 nM, 8 nM and 4 nM, respectively.

B6: h1E9-HC2 × h1E9-LC1 IgG (antibody)
heavy: not shown
light: MDIQLTQSPSSLSASVGDRVTITCRASESVDNSGISFMSWYQQKPGKAPKLLIYTASNQGSGVPSRFSGSGSGTDFTFTISSLQPEDIATYYCQQSKEVPWTFGQGTKVEIKRTVAAPSVFIFPPSDEQLKSGTASVVCLLNNFYPREAKVQWKVDNALQSGNSQESVTEQDSKDSTYSLSSTLTLSKADYEKHKVYACEVTHQGLSSPVTKSFNRGEC
notes: as for B1
Regarding B6, the Kd in test [1] amounted to 3.11 nM; in test [2], 7 nM; in test [3] it was 6 nM.

B7: h1E9-5-IgG-HC-FLAG-HIS × h1E9-LC1 IgG (antibody)
heavy: not shown
light: MDIQLTQSPSSLSASVGDRVTITCRASESVDNSGISFMSWYQQKPGKAPKLLIYTASNQGSGVPSRFSGSGSGTDFTFTISSLQPEDIATYYCQQSKEVPWTFGQGTKVEIKRTVAAPSVFIFPPSDEQLKSGTASVVCLLNNFYPREAKVQWKVDNALQSGNSQESVTEQDSKDSTYSLSSTLTLSKADYEKHKVYACEVTHQGLSSPVTKSFNRGEC
notes: also called h1E9-5 HC × h1E9-LC1
In the case of B7, the Kd in test [1] was determined as 3.7 nM; in test [2], 9 nM; in test [3] it was 4 nM.

B8: h1E9-HC1 × h1E9-LC1 IgG (antibody)
heavy: not shown
light: MDIQLTQSPSSLSASVGDRVTITCRASESVDNSGISFMSWYQQKPGKAPKLLIYTASNQGSGVPSRFSGSGSGTDFTFTISSLQPEDIATYYCQQSKEVPWTFGQGTKVEIKRTVAAPSVFIFPPSDEQLKSGTASVVCLLNNFYPREAKVQWKVDNALQSGNSQESVTEQDSKDSTYSLSSTLTLSKADYEKHKVYACEVTHQGLSSPVTKSFNRGEC
notes: as for B1
Take B8: the Kd came out at 5.08 nM in test [1], 6 nM in test [2] and 7 nM in test [3].

B9: h1E9-HC3 × h1E9-LC4 IgG (antibody)
heavy: not shown
light: MDIVLTQSPDSLAVSLGERATINCRASESVDNSGISFMSWYQQKPGQPPKLLIYTASNQGSGVPDRFSGSGSGTDFTLTISSLQAEDVAVYYCQQSKEVPWTFGQGTKVEIKRTVAAPSVFIFPPSDEQLKSGTASVVCLLNNFYPREAKVQWKVDNALQSGNSQESVTEQDSKDSTYSLSSTLTLSKADYEKHKVYACEVTHQGLSSPVTKSFNRGEC
notes: as for B1
Consider B9, for which the dissociation constant (Kd) in test [1] worked out at 9.4 nM; in test [2] it was 9 nM; in test [3], 5 nM.

B10: h1E9-HC1 × h1E9-LC4 IgG (antibody)
heavy: not shown
light: MDIVLTQSPDSLAVSLGERATINCRASESVDNSGISFMSWYQQKPGQPPKLLIYTASNQGSGVPDRFSGSGSGTDFTLTISSLQAEDVAVYYCQQSKEVPWTFGQGTKVEIKRTVAAPSVFIFPPSDEQLKSGTASVVCLLNNFYPREAKVQWKVDNALQSGNSQESVTEQDSKDSTYSLSSTLTLSKADYEKHKVYACEVTHQGLSSPVTKSFNRGEC
notes: as for B1
Take B10: the values for the equilibrium dissociation constant (Kd) in test [1], in test [2] and in test [3] were 6.33 nM, 8 nM and 11 nM, respectively.

B11: h1E9-5-IgG-HC-FLAG-HIS × h1E9-LC4 IgG (antibody)
heavy: not shown
light: MDIVLTQSPDSLAVSLGERATINCRASESVDNSGISFMSWYQQKPGQPPKLLIYTASNQGSGVPDRFSGSGSGTDFTLTISSLQAEDVAVYYCQQSKEVPWTFGQGTKVEIKRTVAAPSVFIFPPSDEQLKSGTASVVCLLNNFYPREAKVQWKVDNALQSGNSQESVTEQDSKDSTYSLSSTLTLSKADYEKHKVYACEVTHQGLSSPVTKSFNRGEC
notes: also called h1E9-5 HC × h1E9-LC4
For the molecule B11, the values for the Kd in test [1], in test [2] and in test [3] were 7.31 nM, 14 nM and 12 nM, respectively.

B12: h1E9-HC3 × h1E9-LC2 IgG (antibody)
heavy: not shown
light: MDIVLTQSPLSLPVTPGEPASISCRASESVDNSGISFMSWYLQKPGQSPQLLIYTASNQGSGVPDRFSGSGSGTDFTLKISRVEAEDVGVYYCQQSKEVPWTFGQGTKVEIKRTVAAPSVFIFPPSDEQLKSGTASVVCLLNNFYPREAKVQWKVDNALQSGNSQESVTEQDSKDSTYSLSSTLTLSKADYEKHKVYACEVTHQGLSSPVTKSFNRGEC
notes: as for B1
Consider B12, for which the Kd in test [1] amounted to 3.19 nM; in test [2], 19 nM; in test [3], 11 nM.

B13: h1E9-5-IgG-HC-FLAG-HIS × h1E9-LC2 IgG (antibody)
heavy: not shown
light: MDIVLTQSPLSLPVTPGEPASISCRASESVDNSGISFMSWYLQKPGQSPQLLIYTASNQGSGVPDRFSGSGSGTDFTLKISRVEAEDVGVYYCQQSKEVPWTFGQGTKVEIKRTVAAPSVFIFPPSDEQLKSGTASVVCLLNNFYPREAKVQWKVDNALQSGNSQESVTEQDSKDSTYSLSSTLTLSKADYEKHKVYACEVTHQGLSSPVTKSFNRGEC
notes: also called h1E9-5 HC × h1E9-LC2
On to B13, for which the Kd came to 16.2 nM in test [1], 16 nM in test [2] and 11 nM in test [3].

B14: h1E9-HC1 × h1E9-LC2 IgG (antibody)
heavy: not shown
light: MDIVLTQSPLSLPVTPGEPASISCRASESVDNSGISFMSWYLQKPGQSPQLLIYTASNQGSGVPDRFSGSGSGTDFTLKISRVEAEDVGVYYCQQSKEVPWTFGQGTKVEIKRTVAAPSVFIFPPSDEQLKSGTASVVCLLNNFYPREAKVQWKVDNALQSGNSQESVTEQDSKDSTYSLSSTLTLSKADYEKHKVYACEVTHQGLSSPVTKSFNRGEC
notes: as for B1
In the case of B14, the Kd in test [1] was 19 nM; in test [2], 12 nM; in test [3], 19 nM.

B15: h1E9-HC2 × h1E9-LC2 IgG (antibody)
heavy: not shown
light: MDIVLTQSPLSLPVTPGEPASISCRASESVDNSGISFMSWYLQKPGQSPQLLIYTASNQGSGVPDRFSGSGSGTDFTLKISRVEAEDVGVYYCQQSKEVPWTFGQGTKVEIKRTVAAPSVFIFPPSDEQLKSGTASVVCLLNNFYPREAKVQWKVDNALQSGNSQESVTEQDSKDSTYSLSSTLTLSKADYEKHKVYACEVTHQGLSSPVTKSFNRGEC
notes: as for B1
Consider B15, for which the Kd stood at 12.3 nM in test [1], 11 nM in test [2] and 9 nM in test [3].
